Assay [1] deals with T1, cynomolgus LAG3 on activated CD4+ and CD8+ cynomolgus T cells (cynomolgus).
T1 chain: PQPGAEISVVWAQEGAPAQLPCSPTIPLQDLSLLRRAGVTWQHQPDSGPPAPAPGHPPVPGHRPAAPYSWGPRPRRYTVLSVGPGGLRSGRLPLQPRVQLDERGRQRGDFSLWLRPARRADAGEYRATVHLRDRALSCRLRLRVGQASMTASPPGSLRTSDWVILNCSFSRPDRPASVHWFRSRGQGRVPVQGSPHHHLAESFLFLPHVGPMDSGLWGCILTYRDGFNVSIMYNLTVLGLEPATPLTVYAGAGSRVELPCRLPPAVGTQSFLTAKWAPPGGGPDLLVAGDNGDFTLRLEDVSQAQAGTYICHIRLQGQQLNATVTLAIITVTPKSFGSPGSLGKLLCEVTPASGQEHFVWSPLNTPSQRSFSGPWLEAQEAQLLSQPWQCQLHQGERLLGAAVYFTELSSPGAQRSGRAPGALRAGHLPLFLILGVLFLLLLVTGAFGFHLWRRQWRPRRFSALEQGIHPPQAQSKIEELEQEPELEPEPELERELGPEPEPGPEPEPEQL
Briefly: FACS, stimulated cynomolgus CD8+ T cells, donor 2. As for the experimental part: (§1) Next, stimulated cynomolgus T-cells from each donor, as described above, were stained with LIVE/DEAD dye (Molecular Probes) to distinguish between live and dead cells via FACS. Subsequently, cells were co-incubated with PE-conjugated anti-CD8 and FITC-conjugated anti-CD4 for 15 min on ice to enable the detection of CD4 and CD8 positive and negative cell populations.
(§2) Next, the serially diluted antibodies were directly labeled using Zenon Alexa-Fluor 647 (Molecular Probes) and incubated with the cynomolgus CD4+/CD8+ T-cell suspension for 15-30 min on ice. Cells were centrifuged and pellets washed with staining buffer to remove unbound antibodies and fixed for 12 h with a 1:1 dilution of Cytofix (BD Biosciences) and staining buffer. Following the incubation period, fixation buffer was removed and pellets were resuspended in staining buffer, filtered, and used for fluorescence measurements.
(§3) Fluorescence measurements were acquired on the Fortessa (Becton Dickinson) and data analyzed in FlowJo to determine the mean fluorescence intensities (MFI). EC₅₀ values were calculated from a four-parameter logistic equation over an 11-point response curve using GraphPad Prism.
On the technique in general: A flow cytometer gives signals particle by particle.

Assay [2] deals with T2, monkey LAG3 (mfLAG3) expressed on HEK293 cells (cynomolgus monkey, UniProt P18627 24-525 (human entry)).
T2 construct: also called HEK293/mfLAG3; HEK293-mfLAG3
T2 chain: T1 chain
The assay can be described thus: flow cytometry, HEK293/mfLAG3 cells; FACS on HEK293/mfLAG3 cells. As for the experimental part: (§4) The serially diluted antibodies were added to the cell suspension and incubated for 15-30 minutes on ice. The cells were centrifuged and pellets were washed with staining buffer to remove unbound antibodies. […] The cells were centrifuged and pellets were washed with staining buffer to remove unbound secondary F(ab′)2 and fixed overnight with a 1:1 dilution of Cytofix (BD Biosciences, #554655) and staining buffer. Following day, fixed cells were centrifuged and pellets were washed with staining buffer, resuspended and filtered. Fluorescence measurements were acquired on HyperCyt® cytometer and analyzed in ForeCyt™ (IntelliCyt; Albuquerque, N. Mex.) to determine the mean fluorescence intensities (MFI). The EC₅₀ values were calculated from a four-parameter logistic equation over an 11-point response curve using GraphPad Prism. EC₅₀ was defined as the concentration of antibody at which 50% of maximal binding signal is detected. The MFI ratio for each antibody was calculated by dividing the MFI at 100 nM by MFI at 0 nM of antibody concentration.

The target of assay [3] is T1, cynomolgus LAG3 on activated CD4+ and …. The assay can be described thus: FACS, stimulated cynomolgus CD8+ T cells, donor 1. As for the experimental part: as §1, §2, §3
The target is the same in assay [4]. The assay can be described thus: FACS, stimulated cynomolgus CD4+ T cells, donor 1. As for the experimental part: as §1, §2, §3
Assay [5] concerns the target T2, monkey LAG3 (mfLAG3) expressed on …. The assay can be described thus: flow cytometry, HEK293/mfLAG3 cells; FACS on HEK293/mfLAG3 cells; MFI ratio 100 nM/0 nM. As for the experimental part:
as §4

The target of assay [6] is T1, cynomolgus LAG3 on activated CD4+ and …. The assay can be described thus: FACS, stimulated cynomolgus CD4+ T cells, donor 2. As for the experimental part: as §1, §2, §3

Positions count from the first letter of the chain named. Numbers in names are those of the source.

As usually defined, the EC50 is the concentration at which the effect is half-maximal.

B1: H4sH14813N (antibody, human IgG4 S228P, kappa, V domains shown)
VH: QVQLQQWGAGLLKPSETLSLTCAVYGGSFSGYYWNWIRQPPGKGLEWVGEISHRGSTNYNPSLKSRVTISLDTSKNQFSLKLTSVTAADTAVYYCSRDEELEFRFFDYWGQGTLVTVSS
VL: EIVLTQSPATLSLSPGERATLSCRASQSVSSYLAWYQQKPGQAPRLLVYGASNRATGIPARFSGSGSGTDFTLTISSLEPEDFAFYYCQQRSNWPLTFGGGTKVEIKR
notes: H4sH = modified human IgG4 Fc
For B1, the EC50 in assay [1] was determined as 0.11 nM; in assay [2] it was 1.57 nM; in assay [3] it was 0.085 nM; in assay [4] it was 0.42 nM; in assay [6] it was 0.22 nM. The “Ratio of MFI (11 nM/0 nM)” value in assay [1] was 6.3; in assay [3], 3.5; in assay [4], 1.3; in assay [6], 1.5. Besides, the “Ratio of MFI (100 nM/0 nM)” value in assay [5] is 16.7.

B2: H4H14813N (antibody, human IgG4, V domains shown)
VH: B1 VH
VL: EIVLTQSPATLSLSPGERATLSCRASQSVSSYLAWYQQKPGQAPRLLVYGASNRATGIPARFSGSGSGTDFTLTISSLEPEDFAFYYCQQRSNWPLTFGGGTKVEIK
notes: H4H = human IgG4 Fc with S108P hinge mutation
As for B2, the EC50 in assay [2] worked out at 1.42 nM. Further, in assay [5], the “Ratio of MFI (100 nM/0 nM)” value came out at 17.1.

B3: H4sH15482P (antibody, human IgG4 S228P, kappa)
heavy: QVQLVESGGGVVQPGRSLRLSCVASGFTFSSYGMHWVRQAPGKGLEWVAIIWYDGSNKYYADSVKGRFTISRDNSKNTQYLQMNSLRAEDTAVYYCASVATSGDFDYYGMDVWGQGTTVTVSSASTKGPSVFPLAPCSRSTSESTAALGCLVKDYFPEPVTVSWNSGALTSGVHTFPAVLQSSGLYSLSSVVTVPSSSLGTKTYTCNVDHKPSNTKVDKRVESKYGPPCPPCPAPPVAGPSVFLFPPKPKDTLMISRTPEVTCVVVDVSQEDPEVQFNWYVDGVEVHNAKTKPREEQFNSTYRVVSVLTVLHQDWLNGKEYKCKVSNKGLPSSIEKTISKAKGQPREPQVYTLPPSQEEMTKNQVSLTCLVKGFYPSDIAVEWESNGQPENNYKTTPPVLDSDGSFFLYSRLTVDKSRWQEGNVFSCSVMHEALHNHYTQKSLSLSLGK
light: EIVLTQSPATLSLSPGERTTLSCRASQRISTYLAWYQQKPGQAPRLLIYDASKRATGIPARFSGSGSGTGFTLTISSLEPEDFAVYYCQQRSNWPLTFGGGTKVEIKRTVAAPSVFIFPPSDEQLKSGTASVVCLLNNFYPREAKVQWKVDNALQSGNSQESVTEQDSKDSTYSLSSTLTLSKADYEKHKVYACEVTHQGLSSPVTKSFNRGEC
notes: H4sH = modified human IgG4 Fc; also called mAb1
As for B3, the EC50 in assay [1] is 0.41 nM; in assay [2], 1.15 nM; in assay [3] it was 0.46 nM; in assay [4], 1.2 nM; in assay [6], 0.38 nM.

B4: H4H15482P (antibody, human IgG4 S228P, kappa)
heavy: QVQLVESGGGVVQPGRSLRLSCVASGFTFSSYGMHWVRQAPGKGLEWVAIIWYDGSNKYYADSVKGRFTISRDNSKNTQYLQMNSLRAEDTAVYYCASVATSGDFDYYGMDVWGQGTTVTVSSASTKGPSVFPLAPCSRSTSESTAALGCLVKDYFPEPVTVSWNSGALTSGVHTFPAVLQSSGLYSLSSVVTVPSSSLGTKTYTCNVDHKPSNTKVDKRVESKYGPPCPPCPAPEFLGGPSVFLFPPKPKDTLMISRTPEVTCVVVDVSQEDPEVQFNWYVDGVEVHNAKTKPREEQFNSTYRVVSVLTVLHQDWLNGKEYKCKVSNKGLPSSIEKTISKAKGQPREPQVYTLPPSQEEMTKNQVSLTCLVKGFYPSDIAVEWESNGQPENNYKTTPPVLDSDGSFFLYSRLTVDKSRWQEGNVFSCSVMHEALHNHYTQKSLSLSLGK
light: B3 light
notes: H4H = human IgG4 Fc with S108P
The molecule B4 returned an EC50 in assay [2] of 2.2 nM.

B5: H4sH15479P (antibody, V domains shown)
VH: QVQLQQWGAGLLNPSETLSLTCAVYGGAFSDYYWNWIRQPPGKGLEWIGEINHRGSTNYNPSLKSRVTISVDTSKNQFSLRMSSVTAADAAVYYCARGEDYDIWNGYYQEKWGQGTLVTVSS
VL: B2 VL with V29I, S31T, V48I, G50D, N53K, A84V, F85V, Q89H
In assay [2], B5 gave an EC50 of 0.902 nM. Also, in assay [5], the “Ratio of MFI (100 nM/0 nM)” value is 20.7.
